Reference: US11434268B2, “Vascular endothelial growth factor antagonists” (The United States of America, as represented by the …, priority 2012, dated 2022)

T1: NRP1 (Homo sapiens, UniProt O14786)
T1 construct: purchased Sino Biologics
T1 sequence (O14786 22-644 isoform O14786-2 limits assumed): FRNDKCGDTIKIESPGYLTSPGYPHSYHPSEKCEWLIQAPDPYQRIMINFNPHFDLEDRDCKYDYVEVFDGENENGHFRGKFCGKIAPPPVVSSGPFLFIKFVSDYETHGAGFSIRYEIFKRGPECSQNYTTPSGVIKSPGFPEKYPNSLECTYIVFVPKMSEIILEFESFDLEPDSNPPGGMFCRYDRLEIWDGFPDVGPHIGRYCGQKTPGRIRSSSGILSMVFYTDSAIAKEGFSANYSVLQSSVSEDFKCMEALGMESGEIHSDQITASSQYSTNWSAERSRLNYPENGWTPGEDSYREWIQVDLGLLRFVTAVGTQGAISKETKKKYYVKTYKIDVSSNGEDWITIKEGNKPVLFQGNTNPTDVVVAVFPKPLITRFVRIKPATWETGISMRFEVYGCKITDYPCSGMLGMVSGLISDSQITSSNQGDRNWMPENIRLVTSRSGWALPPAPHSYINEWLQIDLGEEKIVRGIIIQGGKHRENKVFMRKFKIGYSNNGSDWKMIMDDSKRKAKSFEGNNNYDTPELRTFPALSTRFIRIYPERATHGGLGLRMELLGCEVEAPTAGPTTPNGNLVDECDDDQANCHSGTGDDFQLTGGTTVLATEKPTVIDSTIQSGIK

B1: VEGF165 3S: human VEGF165 with opposite charge substitutions R123E/R124E/R159E in the mature protein (protein, listed as Homo sapiens)
chain: APMAEGGGQNHHEVVKFMDVYQRSYCHPIETLVDIFQEYPDEIEYIFKPSCVPLMRCGGCCNDEGLECVPTEESNITMQIMRIKPHQGQHIGEMSFLQHNKCECRPKKDRARQENPCGPCSEEEKHLFVQDPQTCKCSCKNTDSRCKARQLELNERTCECDKPRR

How the values were obtained:
293/KDR cells [1] = test: Proliferation of stably transfected 293/KDR cell lines in culture; format: cell-based; details: 293/KDR stable transfectants, days 3-5; p<0.001; FIG. 4E
Procedure: (§1) For proliferation assays, 293/KDR derived cell lines (5×10^4 cellsper well) were seeded in 6-well culture plates in quadruplicate. Cell number per well was measured after 2, 3, 4, and 5 days of growth by removing cells with trypsin, collecting via centrifugation and counting suspended cells in triplicate in a Cellometer Automatic Cell Counter (Nexcelom Bioscience, Lawrence, Mass.). Purified recombinant VEGF-A protein used as an external standard quantitation as VEGF mass per mass total extracted cell protein. KDR autophosphorylation in cell lysates was measured similarly; cultured cells were serum-deprived for 48 h, where noted cells were stimulated for 20 min with WT or 3S VEGF-A alone or in combination at the indicated concentrations, then extracted with ice cold buffer containing non-ionic detergent, protease and phosphatase inhibitors. Cleared extracts were applied to assay plates and processing per the manufacturer's instructions.
(§2) For proliferation assays, 293/KDR derived cell lines were seeded in 6-well culture plates in quadruplicate. Cell number per well was measured at regular intervals removal of adherent cells and counting in a Cellometer Automatic Cell Counter (Nexcelom Bioscience). Assays for colony formation in soft agar were performed as described (Castagnino et al., 2000).

293/KDR cells [2] = test: Soft agar colony formation (anchorage independent growth) of 293/KDR cells; format: cell-based; details: for soft agar colony formation by transfectants: 293/KDR cells stably transfected with expression plasmid, FIG. 4F; for inhibition of soft agar colony formation of 293/KDR cells stably transfected with VEGF165 WT: 3S protein at 0.06, 0.15 and 0.6 nM, pazopanib every other day at 0.3 and 3.0 nM over two weeks, FIG. 5C
Procedure: as §2
SoftAgar Colony Formation Assays for colony formation in soft agar (representative of anchorage independent growth) were performed and quantitated as described previously. Briefly, U87 MG cells and U87 MG cells transfected with a plasmid encoding NK1 60/62/73 were suspended in 0.5% Seaplaque agarose (1×10^5 cells) in growth medium in duplicate 60 mm dishes. Cell colonies were visualized after staining with p-iodotetrazolium violet by brightfield microscopy using an Olympus inverted microscope. Digital images were acquired and recorded using a CCD video camera and IP Lab software.

293/KDR cells [3] = test: KDR-driven tumorigenicity of 293/KDR transfectants implanted subcutaneously in mice; format: in vivo, SCID/Beige mice; details: 3×10^6 transfected 293/KDR cells per animal, subcutaneous, FIG. 5D
Excerpt: Additional control groups received the empty vector 293/KDR cells (3×10^6 per animal) or the empty vector cells combined with VEGF WT transfectants at 1.5×10^6 cells each. The latter group indicated the growth rate of tumors arising from 1.5×10^6 VEGF WT transfectants in the presence of “neutral” cells providing the same initial mass; a growth rate below this threshold in the group implanted with VEGF WT+VEGF 3S transfectants could be attributed to inhibition of VEGF WT-driven tumor growth by VEGF165 3S.
All experiments involving animals were performed in accordance with NIH Guidelines for Care and Use of Laboratory Animals using approved protocols. 293/KDR cells stably transfected with VEGF WT or 3S expression plasmids, or empty vector, were injected subcutaneously into SCID/Beige mice (Taconic, Inc.; 3×10^6 cells per animal total as indicated in the text, 5 mice/group) and tumor volumes were measured at regular intervals as described previously (Giubellino et al., 2007). Statistical analysis and curve fitting for all animal studies were performed using GraphPad Prism software version 5.0.
To test whether 3S VEGF could antagonize KDR-driven tumorigenicity in mice, groups of animals (n=5) were implanted subcutaneously with WT VEFG transfected 293/KDR cells (3×10^6 per animal), with the same number of 3S VEGF transfected cells, or with a suspension containing half the number of cells of each type. Additional control groups received the empty vector 293/KDR cells (3×10^6 per animal) or the empty vector cells combined with WT VEGF transfectants at 1.5×10^6 cells each. The latter group indicted the growth rate of tumors arising from 1.5×10^6 WT VEGF transfectants in the presence of “neutral” cells providing the same initial mass; a growth rate below this threshold in the group implanted with WT VEGF+3S VEGF transfectants could be attributed to inhibition by 3S VEGF. […]

[4] = Heparin-Sepharose mediated clustering (covalent affinity crosslinking); format: binding; details: conditioned media with Heparin Sepharose, BS3 crosslinking; FIG. 8
Procedure: These findings further support the mechanism of action of VEGF 3S as antagonism of HS binding to the VEGF/VEGFR complex leading to instability of ligand/receptor/HS complexes and consequent disruption of downstream signaling.
Covalent Affinity Crosslinking: Assays. […] Heparin Sepharose beads were used as both a source of heparin and to efficiently capture heparin-clustered VEGF from the conditioned media after crosslinking. Samples were then incubated with or without BS3 at room temperature for 1 h. After pelleting the beads by brief centrifugation, samples were obtained from the supernatants for SDS-PAGE and immunoblot analysis. The beads were then washed by five centrifugation/resuspension cycles in PBS, and bound proteins were eluted with boiling SDS-PAGE sample buffer. Supernatant and bead-captured samples were then resolved by SDS-PAGE under reducing conditions, transferred to PVDF and immunodetected with anti-VEGF antibody.

KDR [5] = biological target: T2, KDR (Homo sapiens, UniProt P35968); test: Basal KDR tyrosyl phosphorylation in stably transfected 293/KDR cells; format: cell-based; details: 293/KDR stable transfectants after 24 h serum deprivation; FIG. 4D
T2 construct: host or cells: HEK293 (293/KDR)
Procedure: KDR autophosphorylation in cell lysates or tumor tissue extracts was measured similarly but included parallel detection with anti-receptor antibodies and specific anti-phospho-receptor antibodies or 4G10 (Millipore). […]
KDR tyrosyl phosphorylation in each cell line was measured after 24 h of serum deprivation (FIG. 4D). […]
Immunoassays: KDR and VEGF content in cell lysates, tissue extracts and conditioned media was determined using 2-site electrochemiluminescent immunoassays developed for use with the Meso Scale Discovery (MSD) SectorImager 2400 plate reader (Gaithersburg, Md.). […] GraphPad Prism software version 5.0 was used for all statistical analyses: protein content values determined by 2-site immunoassay were interpolated from standard curves by nonlinear regression analysis (4 parameter logistic equation); saturation and competitive binding curves were fit after determination of specific binding and assuming a one site binding model.

KDR [6] = biological target: T2, KDR; test: Antagonism of VEGF165 WT-stimulated KDR autophosphorylation in 293/KDR cells; format: cell-based; details: VEGF165 10 ng/ml, serum-deprived 293/KDR cells; mock-immunodepleted conditioned media containing 2.5-fold molar excess VEGF 3S protein; FIG. 5B
Procedure: FIG. 5B. […] The x-axis indicates the concentration of VEGF165 3S protein (ng/ml) in the conditioned media prior to immunodepletion.
as §1, with “Cleared extracts were applied to assay plates and processing per the manufacturer's instructions.” left out
Since the conditioned media could contain other inhibitors of KDR activation, VEGF165 3S was selectively removed from the media by immunodepletion with anti-VEGF antibody. A mock-immunodepletion was performed in parallel using a non-specific antibody and the VEGF165 3S content of the anti-VEGF and mock-immunodepleted media was measured (FIG. 5A). […]

[7] = system: Akt activation in EA.hy 926 cells, which express VEGFR1 and R2; test: VEGF- or PlGF-induced Akt activation (phospho-Akt/total Akt) in EA.hy 926 cells; format: cell-based; details: FIG. 9A
Procedure: VEGF 3s blocked Akt activation by VEGF-A (dark circles) or P1GF (squares).
(§3) Thus the pattern of VEGF 3S inhibition followed the pattern of VEGF-A binding to VEGFR1 and R2, but not homodimers of VEGFR3, as anticipated. […] VEGF 3s blocked Akt activation by VEGF-A (dark circles) or P1GF (squares). […] SCC-25 cells express all three VEGFRs.
(§4) Immunoassays: KDR and VEGF content in cell lysates, tissue extracts and conditioned media was determined using 2-site electrochemiluminescent immunoassays developed for use with the Meso Scale Discovery (MSD) SectorImager 2400 plate reader (Gaithersburg, Md.). KDR activation in cell lysates or tumor tissue extracts included parallel detection with anti-receptor antibodies and specific anti-phospho-receptor antibodies or 4G10 (Millipore). Cell lysates were prepared similarly for analysis of activated (phospho-) Akt, and total Akt using immunoassays from MSD. All measurements were made on triplicate samples. GraphPad Prism software version 5.0 was used for all statistical analyses: protein content values determined by 2-site immunoassay were interpolated from standard curves by nonlinear regression analysis (4 parameter logistic equation); saturation and competitive binding curves were fit after determination of specific binding and assuming a one site binding model.

[8] = system: Akt activation in SCC-25 cells, which express VEGFR1, R2 and R3; test: VEGF-A- or VEGF-D-induced Akt activation in SCC-25 cells; format: cell-based; details: FIG. 9C
Procedure: SCC-25 cells express all three VEGFRs.
as §3, §4

NRP1 = biological target: T1, NRP1; test: Covalent affinity crosslinking analysis of NRP1 binding; details: NRP1-Fc, BS3 crosslinking, conditioned media; FIG. 10A
Procedure: Purified recombinant NRP1-Fc (Sino Biologics) was added as indicated (−NRP1 or +NRP1) to 24 h conditioned media from vector transfected 293/KDR cells(left lanes), 293/KDR/VEGF 3S transfectants (middle lanes), or 293/KDR/VEGF WT transfectants (right lanes) in the absence (−) or presence (+) of the crosslinking reagent BS3 (Thermo Fisher Pierce). Samples were resolved by SDS-PAGE under reducing conditions, transferred to PVDF and immunodetected with anti-Fc antibody (top panel; Thermo Fisher Pierce) or anti-VEGF (lower panels; R&D Systems). A 160 kDa band, consistent with a 1:1 complex of NRP1-Fc and VEGF dimer, was detected by both antibodies specifically in the presence of NRP1-Fc in media from 293/KDR/VEGF 3S transfectants and 293/KDR/VEGF WT transfectants but not the vector control. […] Dimeric VEGF (44 kDa) is captured from both 293/KDR/VEGF 3S media and 293/KDR/VEGF WT media only in the presence of BS3 in the reducing SDS-PAGE conditions used.

T2 sequence (P35968 20-1356): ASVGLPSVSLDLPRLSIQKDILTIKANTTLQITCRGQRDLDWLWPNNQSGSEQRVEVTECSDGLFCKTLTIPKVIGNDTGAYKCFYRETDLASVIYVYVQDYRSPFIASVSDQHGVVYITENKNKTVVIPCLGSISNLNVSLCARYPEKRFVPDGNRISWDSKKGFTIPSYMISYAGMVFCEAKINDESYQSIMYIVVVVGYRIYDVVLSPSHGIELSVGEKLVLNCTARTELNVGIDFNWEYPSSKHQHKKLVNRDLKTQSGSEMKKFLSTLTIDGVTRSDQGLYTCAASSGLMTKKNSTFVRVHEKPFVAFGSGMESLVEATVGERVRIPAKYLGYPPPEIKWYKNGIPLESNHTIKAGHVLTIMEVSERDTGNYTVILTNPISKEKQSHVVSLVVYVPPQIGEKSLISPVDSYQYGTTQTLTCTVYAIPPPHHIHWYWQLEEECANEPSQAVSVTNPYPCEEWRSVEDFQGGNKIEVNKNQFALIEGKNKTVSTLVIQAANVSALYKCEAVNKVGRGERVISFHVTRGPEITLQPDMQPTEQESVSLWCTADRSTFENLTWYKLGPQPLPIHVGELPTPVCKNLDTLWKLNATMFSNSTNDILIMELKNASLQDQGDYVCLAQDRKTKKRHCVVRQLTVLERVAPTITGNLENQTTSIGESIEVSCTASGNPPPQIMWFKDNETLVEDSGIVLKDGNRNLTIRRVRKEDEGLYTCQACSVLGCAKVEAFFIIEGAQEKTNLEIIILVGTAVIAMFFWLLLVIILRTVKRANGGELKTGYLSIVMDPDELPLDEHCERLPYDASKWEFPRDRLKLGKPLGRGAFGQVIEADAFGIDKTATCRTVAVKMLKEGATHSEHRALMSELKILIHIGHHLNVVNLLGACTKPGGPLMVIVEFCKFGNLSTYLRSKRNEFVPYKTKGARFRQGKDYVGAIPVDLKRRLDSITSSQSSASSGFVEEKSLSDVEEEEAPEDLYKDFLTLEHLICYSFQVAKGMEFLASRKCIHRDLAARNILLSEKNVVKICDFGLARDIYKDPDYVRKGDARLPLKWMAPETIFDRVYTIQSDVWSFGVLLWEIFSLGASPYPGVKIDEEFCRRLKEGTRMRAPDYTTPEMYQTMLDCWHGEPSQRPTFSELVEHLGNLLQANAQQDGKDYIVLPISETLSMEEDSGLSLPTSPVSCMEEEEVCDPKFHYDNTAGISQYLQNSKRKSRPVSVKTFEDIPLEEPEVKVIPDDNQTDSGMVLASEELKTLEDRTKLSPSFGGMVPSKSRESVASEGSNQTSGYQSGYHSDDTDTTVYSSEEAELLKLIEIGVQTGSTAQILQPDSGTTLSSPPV

Row | Molecule | cell proliferation rate in culture (293/KDR cells [1]) | soft agar colony formation by transfectants (293/KDR cells [2]) | soft agar colony formation by transfectants (293/KDR cells [2]; listed as WT VEGF165) | tumor formation by implanted transfectants (293/KDR cells [3]) | heparin-promoted clustering (oligomerization) [4] | basal KDR phosphorylation level compared with empty vector transfectants (KDR [5]) | inhibition of soft agar colony formation of 293/KDR cells stably transfected with VEGF165 WT (293/KDR cells [2]) | inhibition of soft agar colony formation of 293/KDR cells stably transfected with VEGF165 WT (293/KDR cells [2]; listed as 3S VEGF) | inhibition of KDR autophosphorylation stimulated by purified VEGF165 protein (KDR [6]) [%] | tumor formation by implanted transfectants (293/KDR cells [3]; listed as 3S VEGF) | tumor formation by implanted transfectants (293/KDR cells [3]; listed as VEGF 3S) | inhibition of PlGF-induced Akt activation (phospho-Akt/total Akt) [7] | inhibition of VEGF-A-induced Akt activation (phospho-Akt/total Akt) [7] | inhibition of PlGF-induced Akt activation (phospho-Akt/total Akt) ([7]; listed as VEGF 3s) | antagonism of Akt activation by VEGF-A ([8]; VEGF-A at 100 pM) | block of Akt activation induced by VEGF-D ([8]; VEGF-D at 1000 pM) | binding to NRP1 in vitro (NRP1)
1 | VEGF165 WT: native mature human vascular endothelial growth factor A isoform of 165 amino acids | grew significantly faster | grew robustly | robust anchorage independent growth | formed tumors fastest | promoted clustering |  |  |  |  |  |  |  |  |  |  |  | 
2 | B1 |  | grew modestly, if at all |  |  |  | indistinguishable | significant, dose-dependent inhibition | substantial and dose-dependent inhibition | > 80 | tumors grew most slowly | did not form tumors prior to study termination | potency similar to pazopanib | blocked | blocked | antagonism | did not block | bound similarly
